This note sets out measurements from the DeepSol protein solubility set.

This data set is described as follows: soluble on expression in E. coli; label from the status in PepcDB or PDB records.
As to “MKLSFSLPPKSKSRVSLNSDRKDCIGAGNLKQFVTEFDPSETLTDSKPKYVIPPIEDRRRSYRSIDLPLPSASGLQFEAEIPSGDGSDNNITYGLNLRQKVENVEKPEPVEKMLLKSMRTDLESLPDAPEKEDFESFPVDGFGEALLAGYGWKPGQGIGLKAKEDVKIVEYEKWSGNEGFGFGKSDKAMKMIDNKLVGSGSHEEVKVGINKIENMEKDRVVRKRNRETEGESRTEVKACKQNYRGQTRETREKTSWLRSHIKVRIISKDVKGGRLYLKKAVVTDVVGPTSCDIAMDETQELVQGIDQELLETALPRRGGSVLVLSGRHKGVYGRLVEKDLDKETGVVCDADSQEMLHVKLDQVAEYIGDPADIGY”, the “soluble on expression in E. coli” value is recorded as “soluble”.
Take “MGSDKIHHHHHHDPVSDITDLNYWKTPEQFDSFVFGLHSRFRSHSWNMFLLGEARSDVFGGIPFGGEATQGMERFPYNTLNAENPGISGFGDLYQNINQMNLFISRTLHTDVLTESARNYYLGQVYGLRAYYMYQLYRSWGDVVFTEEPSLGFEVGKLAKAATPAAEIFEQVKKDIESSLSYFGSDYTIKEKKSLWSKAATLMLKADVYLWSAHRDGGEGDARTAKNALVDIQNNISRSNLDLMDTYQGVFAYDNKGNKEIIFTIHNELFEYNLWNGNNDLFPQADYLGKFYNADGTLINTSVENNFGIMRLMVKLENFKKFLPGDTRRDVTLKDVYNKVENGKLELVGVYPHKYWGVMNGSTRVRCDDYPIYRYSDLLLMLAEAKVLLGEDPATEINRVRRRAFGDAYDASTVGFPNQEVDKRPADAVLQERLFEFMLEGKRWYDLRRFGDSYVLDYTPAEPARLLWPINQGALTNNPLLKQTVGY”: the “soluble on expression in E. coli” value was “not soluble”.
“MKPVKVGICGLGTVGGGTFNVLQRNAEEIARRAGRGIEVAQIAVRTPNPNCQIAGTPTTSDVFAVATNPEIDIVVELIGGYTIARDLVLKAIEHGKHVVTANKALIAVHGNEIFAKAREKGVIVAFEAAVAGGIPVIKAIREGLSANRINWVAGIINGTGNFILTEMREKGRTFPDVLAEAQALGYAEADPTFDVEGIDAAHKLTILASIAFGIPLQFDKAYTEGITKLTTADVNYAEALGYRIKHLGVARSTAQGIELRVHPTLIPADRLIANVNGVMNAVMVNGDASGSTLFYGAGAGMEPTASSVVADLVDVVRAMTSDPENRVPHLAFQPDSLSAHPILPIEACESAYYLRIQAKDHPGVLAQVASILSERGINIESIMQKEVEEHDGLVPMILLTHRVVEQRINDAIQALEALQDVVGPVVRIRVEHLN”: the “soluble on expression in E. coli” value is “not soluble”.
For the sequence “MAHHHHHHMHTYTTQPCATSTSVPQLTRLSVSSSGHSPAVPTNWSIGRPTTLRCRDTDSDVHCNWGAIQGEDEEDKESLIGCATQVWRISAEVQMPLQCSHGTRATEEETLLGAPTSHCGDHLTNGRGVFASSPPIVWQPAPLPASFSASQIDLSGGGQDNAVLLSGAPVGSAEEETHNDNREVTRSNVIPATGDIAATESNDSFVGLEAAPRKGYARSNSGTPPRSDLGSPNNAANLQAHGRAANGVSAGVELVYRAAASETNSHHFGASLCANIGSGCRARLGIPAEWRDHMCAATPQGRGVWVQVPGQLRESEYPASTTTAEAVAARLAHISIHTSPTPKRLAFEEEELVERVSGGGSPTLIPAVRFVADGAARRGACNEASVAQGAGGSTEVGLLGRGAGGLSSSGMRWASVFGDSGHLELCSSRIPSGLQLLRSRKRCLDEMQATDTQERHADTLVTGGISDARDASYLVPDRVARMSLATPFENLEEDGDGDEEAVKRQRREEQRRMRLQHLLPASPNTMDDLIPAPARALGTAVAPCSSVSSSHVRSTVHGIQSTQDQQHQQDRTRNDDPASWSQVSSISYVTPASQSTSMGLWGVPGTLSQGHHGGAVVCSVGSGSQLLTPLPTNVMPQPSHKP”, the “soluble on expression in E. coli” value is recorded as “not soluble”.
Consider “MGGGPALNRDSSRHARPFISSPVKTLAIIPAFNEAQAIGPVLGDLPDGWVDEVVVVNNASTDATKANARAAGATVVDEPQQGYGAACLRGIAYAETRQPDVVVFLDGDYSDHPEELPRLVEPIAADEADFVVGSRIRGDAEPGALLPQAQVGNRFACSLMARLWGADYTDLGPFRAIRFRDLLALDMQDETFGWTIEMQIRALEAGLRVEEVPVSYRRGIGPSKITGTLSGTVKASAKILWTIGRMAATTHRRAPRLRERVDRARTDAPTPNPGGLEHHHHHH”, for which the “soluble on expression in E. coli” value was “not soluble”.
Regarding “MGSDKIHHHHHHMQTLPTPTTSSNTANQSTFDTTIKRRKTRPVKVGNVTIGGGYPVVVQSMINEDTLDIDGSVAAIRRLHEIGCEIVRVTVPSIAHAVALAEIKQKLITTYQDVPIVADVHHNGMKIALEVAKHIEKVRINPGLYVFEKPNTNRTEYTQAEFEEIGEKIRETLAPLVITLRDQGKAMRIGVNHGSLAERMLFTYGDTPEGMVESALEFIRICESLDFRNIVISMKASRVPVMVAAYRLMAKRMDDLGMDYPLHLGVTEAGDGEYGRIKSTAGIATLLADGIGDTIRVSLTEAPEKEIPVCYSILQALGLRKTMVEYVACPSCGRTLFNLEEVLHKVRESTKHLTGLDIAVMGCIVNGPGEMADADYGYVGKTPGYISLYRGREEIKKVPEDKGVEELINLIKADGRWVDP”, the “soluble on expression in E. coli” value was “not soluble”.
Take “MCTRVVYSGSNGMVATGRSMDWKTDMHSNLWVFPRGMKRNGETGENSLEWTSRYGSVVTSAFEIASTDGMNEKGLVANLLWLPETEYPVRDKNKPGLAITAWVQYMLDNFATVEEAVAYIDEDTFQVVSDMMPDGSRLATLHLSISDATGDCAIFEYIGGKLTVYHSKEYKVMTNSPTYNKQLALSEYWKSIGGLSFLPGTNRAADRFARASFYINALPETDDERIAVASVFSVVRNASVPYGISTPESPEISTTQWRTVSESKNLRYFFESSLTPNTFWVNLKDFDLSEGAPVFKLSIANGEMYHGNTAKNFKTALPFKFMGVKG”: the “soluble on expression in E. coli” value is “not soluble”.
On to “MNDRSSRRRTMKDDETFEISIPFDEAPHLDPQIFYSLSPSRRNFEEPPEAASSALALMNSVKTQLHMALERNSWLQKRIEDLEEERDFLRCQLDKFISSARMEAEDHCRMKPGPRRMEGDSRGGAGGEASDPESAASSLSGASEEGSASERRRQKQKGGASRRRFGKPKARERQRVKDADGVLCRYKKILGTFQKLKSMSRAFEHHRVDRNTVALTTPIAELLIVAPEKLAEVGEFDPSKERLLEYSRRCFLALDDETLKKVQALKKSKLLLPITYRFKR”, for which the “soluble on expression in E. coli” value is on record as “soluble”.
For “MRGSHHHHHHGMASMTGGQQMGRDLYDDDDKDHPFMAQRTEESKGKLSFATQGGQGEGSYSKSNSAASKTLSACIVPSLEEFLLHHFSPPQGAGPIYYADFGCAVGANTIGLAKFVTETLKSRPEISERDFLCYFADLPTNDFNTLFNQFPPLASRDGGNGNVEERTWFAAGVPGNQFNRMFPRSSLHVAITTLTLHYLPEIPKSITDESSPTFNRGCISSHGASPAVAEVFADTSREGLRKFFQCRAEELASGGVLAFYFPSRPDRAHPERQMSEDSMQLALWKVETAWRELVAEGVMPEELLDTFNVPNCHPSKEEVEEVVDHETSCFHIQKLEYIHKHPFSPPNPELILKDAQSYAKWWTGILRGGLGGMLSAHMAPELTEALMERFSKHIEKDYLEKKPQFPMIMNICMGILIRK”, the “soluble on expression in E. coli” value is given as “soluble”.
For “MEKSEGGDQPESAGEKEQVHQGADQQVQREKRRRSVSPDGGDVGSVKMADVVLEGASDVAVTKKRKITEEAAAAAKVNSEAITSATGPNTSTQAAASANEEDDKDKEDDKDAKKKKNRCGECRKKVGLTGFQCRCGGLYCAVHRYSDKHNCTFDYREHGAQEIRRNNPVVVGEKIQKILEHHHHHH”, the “soluble on expression in E. coli” value was “not soluble”.
Take “MGSDKIHHHHHHMADNKIIQHVYIVGSKGIPANYGGFETFVEKLTAGQENRQIKYHVASRFDNSEQAGKKQRFEYNGADVFSIDVPNIGSAQAIVYDYKALKEAIRISKQNQDKHPIFYVLANRIGPFAKHFAKEIHALGGRFYLNPDGHEWARAKWPKPVRKYWKYSEKKMVAAADLIIADNPEIEKYIKKEYSSFHPQTTYIAYGTDVQRSKLTMKDQKVRDWFKQKRITENNYFLVVGRFVPENNYETMIREFMTSRTKKDFVLVTNVEKNRFYERLKQRTHFDQDPRIKFVGTVYDQELLKYIRENAFAYFHGHEVGGTNPSLLEALSMTRLNMLIDVPFNRAVAKEGAMYWNKAIGNLTAQINQTETYDKKRIIDYTQAARKRVTDEFTWESIIAKYEELFVS”: the “soluble on expression in E. coli” value is “not soluble”.
As to “MKSILEQLSSMTVVVADTGDLDSIKKFQPRDATTNPSLILAAAKNPDYVKLIDKAIESSENTLPNGFSEIELIKETVDQVSVFFGKEILKIISGRVSTEVDARLSFDTEATVKKARKLINLYKNFGIEKERILIKIAATWEGIKAAEILEKEGIKCNLTLLFNFCQAVTCANANITLISPFVGRILDWHKAKTGKTSFIGAEDPGVISVTQIYKYFKEKGFKTEVMGASFRNLDEIKELAGCDLLTIAPKFLEELKREKGVLIRKLDASTKINNSIDYKFEEKDFRLSMLEDQMASEKLSEGITGFSKAIEELEELLIERLSEMKNHKLISAN”, the “soluble on expression in E. coli” value is on record as “soluble”.
For the sequence “MKKYILTLILALASLGLYAQTNRNKTIINAALHGWEYEIKAGVNLGGTAPLPFPEEIRSIDGYNPTLSITIEGNMTKWLDTKKKWGIITGLRLENKGMRTKATVKNYNMEIIGYDGNRLKGNWTGGVRTKVQNSYITIPVLAAYKLSPRTTLKLGPYFSYLMDGDFSGHVYEGYLRETNPTGDKINFTNGAIATYDFSGDLRKFQWGVQAGVDWKAFKHLKVHADLNWGLNDIFNKDFKTVTFDMYAIYLNVGFGYAF”, the “soluble on expression in E. coli” value is “not soluble”.
In the case of “MEDKLVTLAILTYTKAQILKNVLENEGIETYIHNVNQIQPVVSSGVRLRIKESDLPRALKITESSTWLSESIVGEKTPKVDSKSNKILIPVDFSNYSMKACEFGFNLAKTENSEVILLHVYFTPIYASSLPYGDVFNYQIGDEESVKTIIQQVHSDLNALSDKIKEKVASGEFPDIKYSCILREGIPEEEILRYAKEQRPKVIIMGTRGKSQKDIDLIGSVTAEIIDRSRTAVLAIPENTPFKEFNEVKRIAFLTNFDQRDLIAFEAFFNTWKSFHFSVSLIHLAESKDTWNEIKLAGIKDYFQKQYPGLEIHYDVVMNDNLLKGLDKYIKDNQIDIITLTSYKRNIFARLFNPSIARKMIFHSDTPLLVING”, the “soluble on expression in E. coli” value is on record as “not soluble”.
Consider “MLTNEQLAALRSRLLDMKRETEDRLKQNDHFGMIRSHAHDAVGELASYDNHPADEATELYEREKDLALKEHAERELREIERALGAIADGTYGTCRVCGRPIPYERLEALPTTLYCREHSPDQTVSQKRPLEEGVLMPPFGKFDFDDRAESVAYDAEDAWQEVARYGTSDTPSDLGKNVDSYSEVYAESEENVGYVEDLENFAAVDLHGQHVRVYPTREHELLENILDDEGIMSNIGDLPAYEKDPYTSKDSYRRYDERPSQQHFGETTP”, for which the “soluble on expression in E. coli” value was “not soluble”.
For “MLCSMGTLFQRLSSLDGKGYGAYKSIAGRHALEGVPGAELFLDKVQSDPYAPASLSRVRVPLAALPFSGSLSTHQRDLLNRRIAGEFCHGLAIDCPGQQVLSRAAVTQLDDALQICFEVQLPARGRRIRGREAAQLLCTTLSRALDRALCITAGGDALRAELEAAAELERDQAALR”, the “soluble on expression in E. coli” value is “not soluble”.
As to “EIEMTQSPSSLSASVGDRVTISCRASQRINTYLNWYQHKPGKAPKLLIYAASSLQSGVPSRFSGSGYGTDFTLTISSLQPEDFASYYCQESLSASYTFGQGTKVEIKRTVAAPSVFIFPPSDEQLKSGTASVVCLLNNFYPREAKVQWKVDNALQSGNSQESVTEQDSKDSTYSLSSTLTLSKADYEKHKVYACEVTHQGLSSPVTKSFNRGEC”, the “soluble on expression in E. coli” value is listed as “soluble”.
